The results in this text go back to patent publication US9872893B2, “Endolysins active against Staphylococcus bacteria, pharmaceutical compositions, and methods relating thereto” (priority 2014, dated 2018).

Series [1] has as its system S. aureus NRS-14 (VISA strain). The series can be described thus: bactericidal analysis (CFU counts, MBC). In kind it is cell-based, Staphylococcus aureus. As to conditions: 1 hour, stationary phase. On the procedure:
Sterile-filtered PlyGRCS was 2-fold serially diluted in PBS supplemented with 1 mM CaCl2 and an equal volume of either various concentrations of enzyme or buffer only was added to 10^5 S. aureus NRS-14 in a microtiter plate. Samples were incubated at 37° C. for 1 hour, then serially diluted, plated on TSB agar, and incubated overnight at 37° C. to obtain CFU counts. The MBC (minimum bactericidal concentration) was determined as the minimum concentration of enzyme that killed ≧99.9% of bacteria.
It has been noted that the minimal inhibitory concentration (MIC) assay may not be the most appropriate assay to measure endolysin efficacy due to the speed at which the enzyme acts (Kusuma C M et al. (2005) Comparison of four methods for determining lysostaphin susceptibility of various strains of Staphylococcus aureus. Antimicrobial agents and chemotherapy 49(8):3256-63). Therefore, we employed the minimum bactericidal concentration (MBC) assay, which is the lowest concentration of enzyme that kills ≧99.9% (i.e. 3 logs) of the test inoculum (Jones R et al. (1985) Susceptibility tests: microdilution and macrodilution broth procedures. In: Balows A, Hausler J, Shadomy H (eds) Manual of Clinical Microbiology. American Society for Microbiology, Washington, D.C., pp 972-7).

For series [2], the system named is Staphylococcus epidermidis, NRS-101. The series can be described thus: plate lysis assay (spectrum of lytic activity). The following applies: 6 μg. Details: key to strength of lytic zone: strong lytic zone = ++; weak lytic zone = +; no lytic zone = −. The series is classed as cell-based. How it is done:
(§1) The PlyGRCS spectrum of lytic activity was performed (Schmelcher M et al. (2012) Chimeric phage lysins act synergistically with lysostaphin to kill mastitis-causing Staphylococcus aureus in murine mammary glands. Appl Environ Microbiol 78(7):2297-305) with minor modifications. Bacterial cells were diluted in sterile PBS to an OD600=1, and 100 μl was spread on each plate. 10 μl spots (600 μg/ml) of PlyGRCS or CHAPGRCS were applied. Plates were incubated overnight at 37° C. Strength of lytic zones was defined qualitatively.

Series [3] deals with Staphylococcus aureus, NRS-71. The series can be described thus: plate lysis assay (spectrum of lytic activity). Set-up: key to strength of lytic zone: strong lytic zone = ++; weak lytic zone = +; no lytic zone = −. As to conditions: 6 μg. The series is classed as cell-based. On the procedure: as §1
The test system of series [4] is Staphylococcus aureus, NRS-14. The series can be described thus: plate lysis assay (spectrum of lytic activity). The following applies: 6 μg. The series is classed as cell-based. Details: key to strength of lytic zone: strong lytic zone = ++; weak lytic zone = +; no lytic zone = −. How it is done:
as §1

In series [5] the test system is Staphylococcus aureus, NRS-384. The series can be described thus: plate lysis assay (spectrum of lytic activity). Set-up: key to strength of lytic zone: strong lytic zone = ++; weak lytic zone = +; no lytic zone = −. As to conditions: 6 μg; S. aureus NRS-384, MRSA. In kind it is cell-based. On the procedure: as §1
Series [6] deals with S. aureus NRS-14 peptidoglycan. The series can be described thus: dinitrosalicylic acid (DNSA) assay for reducing sugars. The series is classed as biochemical, Staphylococcus aureus. The following applies: 50 μg/ml, one hour, 37° C.
Series [7] concerns S. aureus cell walls (purified peptidoglycan). As to conditions: 50 μg/ml, one hour, 37° C.
Excerpt: To determine an increase in free amine groups, the trinitrophenylation reaction was used, originally described by Satake et al. and modified by Mokrasch (Satake M et al. (1960) Incorporation of leucine into microsomalprotein by a cell-free system of guinea-pig brain. Biochim Biophys Acta 41:366-7; Mokrasch L (1967) Use of 2,4,6-trinitrobenzenesulfonic acid for the coestimation of amines, amino acids, and proteins in mixtures. Anal Biochem 18:64-71). […] Samples were pelleted and the supernatant was filtered through a 0.22 μM filter. The sterile filtrate was added to sodium tetraborate and trinitrobenzenesulfonic acid and incubated for 30 minutes at room temperature. Samples were read at OD420. Lysine was used as a standard.
Series [8] is described as follows: circular dichroism melting experiments. In kind it is physicochemical. As to conditions: 0.1 mg/ml, 20 mM sodium phosphate buffer pH 7, 20-95° C. at 1° C./min. On the procedure:
CD experiments for wild-type (WT) and active-site mutants were performed on a Chirascan CD spectrometer (Applied Photophysics) equipped with a thermoelectrically controlled cell holder. CD spectra were obtained in the far-UV range (190-260 nm) in a 1 mm path length quartz cuvette at 1 nm steps with 5 second signal averaging per data point. Spectra were collected in triplicate, followed by averaging, baseline subtraction, smoothing and conversion to mean residue ellipticity (MRE) by the Pro-Data software (Applied Photophysics). Secondary structure prediction was performed using the Provencher and Glockner method (Provencher S W & Glockner J (1981) Estimation of globular protein secondary structure from circular dichroism. Biochemistry 20(1):33-7) provided by DICHROWEB (Whitmore L & Wallace B A (2004) DICHROWEB, an online server for protein secondary structure analyses from circular dichroism spectroscopic data. Nucleic Acids Res 32:W668-73).
Melting experiments were performed by heating PlyGRCS at a 0.1 mg/ml concentration in 20 mM sodium phosphate buffer pH 7 from 20° C. to 95° C. using a 1° C./min heating rate. MRE was monitored at 218 nm in a 1 mm path length quartz cuvette at 0.5° C. steps with 5 second signal averaging per data point. The melting data was smoothed, normalized and fit with a Boltzmann sigmoidal curve. The first derivative of the melting curve was then taken to determine the temperature (Tm) at which the folded and unfolded protein species in solution were at equilibrium (Fallas J A & Hartgerink J D (2012) Computational design of self-assembling register-specific collagen heterotrimers. Nat Commun 3:1087).
In general terms: Circular dichroism is the unequal absorption of left and right circularly polarised light.

B1: PlyGRCS: endolysin of bacteriophage GRCS (ORF15), amino acids 1-250, SEQ ID NO: 5, C-terminal 6× His tag (protein)
chain: MKSQQQAKEWIYKHEGTGVDFDGAYGFQCMDLAVAYVYYITDGKVRMWGNAKDAINNDFKGLATVYENTPSFKPQLGDVAVYTNSQYGHIQCVISGNLDYYTCLEQNWLGGGFDGWEKATIRTHYYDGVTHFIRPKFSASNSNVLETSKVNTFGNWKQNQYGTYYRNENATFTCGFLPIFARVGSPKLSEPNGYWFQPNGYTPYDEVCLSDGLVWIGYNWQGTRYYLPVRQWNGKTGNSYSIGLPWGVFS
modifications: C-terminal 6xHis tag; Synthetically generated polypeptide (PlyGRCS phage (S. aureus))
B1: the “reduction of bacterial counts” value in series [1] (6.25 μg/ml) worked out at 2 logs. Also, the log decrease in series [1] (12.5 μg/ml) was 2.5 log. In series [1] (25 μg/ml), the log killing came to 3 log. The “lytic activity on plates (in words)” value in series [2] (S. epidermidis NRS-101), in series [3] (S. aureus NRS-71) and in series [4] (S. aureus NRS-14) was “greatest strength” throughout. The “strength of lytic zone” value in series [2] (S. epidermidis NRS-101, MRSE) is on record as “++”; in series [3] (S. aureus NRS-71, MRSA), “++”; in series [4] (S. aureus NRS-14, VISA), “++”; in series [5], “+”. In series [6], the “glycosidase activity (reducing sugar release)” value is given as “did not show any glycosidase activity”. Also, in series [7], the “free amine release (amidase/endopeptidase activity)” value was “free amines were detected”. In series [8], the Tm was determined as 43.5 °C.
